What was measured:
[1] = target: 14-3-3γ (UniProt P61981); assay: co-immunoprecipitation of Myc-ENDOG, western blot; conditions: reference: Myc-ENDOG wild type; sites T128,S288
[2] = target: 14-3-3γ (UniProt P61981); assay: co-immunoprecipitation, western blot; conditions: reference: wild-type ENDOG; sites T128,S288

ENDOG (Endonuclease G) (from UniProt Q14249) Myc-ENDOG-AA (T128A/S288A)
binding against the reference [1]: weaker

ENDOG (Endonuclease G) (from UniProt Q14249) T128A/S288A (AA)
binding against the reference [2]: weaker

From article PMC7817833
